Results from US9701750B2.

Assays:
[1] = molecular target: human CD16A (FcγRIIIA) on the cell surface (human) (UniProt P08637)
[2] = molecular target: human CD16A-Fc^48R/158V fusion protein (human); assay: SPR (BIAcore 2000), CD16A-Fc immobilized, koff/kon
[3] = molecular target: human CD16A-Fc^48R/158V fusion protein (human); assay: SPR (BIAcore 2000), CD16A-Fc immobilized, 1/1 Langmuir model
CD16B-Fc^NA1 (human) [4] = assay: SPR (BIAcore 2000), antigen immobilized
[5] = molecular target: human CD16A-Fc^48R/158V fusion protein (human); assay: SPR (BIAcore 2000), antigen immobilized
CD16B-Fc^NA2 (human) [6] = assay: SPR (BIAcore 2000), antigen immobilized
CD16B-Fc^SH (human) [7] = assay: SPR (BIAcore 2000), antigen immobilized
[8] = molecular target: human CD16A-Fc^48R/158F fusion protein (human); assay: SPR (BIAcore 2000), antigen immobilized
CD16B-Fc^NA1 (human) [9] = assay: SPR (BIAcore 2000), antigen immobilized, koff/kon
[10] = molecular target: human CD16A-Fc^48R/158V fusion protein (human); assay: SPR (BIAcore 2000), antigen immobilized, koff/kon
CD16B-Fc^NA2 (human) [11] = assay: SPR (BIAcore 2000), antigen immobilized, koff/kon
CD16B-Fc^SH (human) [12] = assay: SPR (BIAcore 2000), antigen immobilized, koff/kon
[13] = molecular target: human CD16A-Fc^48R/158F fusion protein (human); assay: SPR (BIAcore 2000), antigen immobilized, koff/kon

anti-CD16 murine monoclonal antibody A9 was tested, and the redirected lysis of FcR-positive P815 cells by freshly isolated NK cells (calcein release) [1] was 65%, the Kd [2] was 1.75 nM and the koff [3] was 0.000177 s⁻¹. The kon [3] was 101000 M⁻¹ s⁻¹, the koff (CD16B-Fc^NA1 (human) [4]) was 0.000487 s⁻¹ and the kon (CD16B-Fc^NA1 (human) [4]) was 77200 M⁻¹ s⁻¹. The koff [5] was 0.000406 s⁻¹, the kon [5] was 78600 M⁻¹ s⁻¹ and the koff (CD16B-Fc^NA2 (human) [6]) was 0.000478 s⁻¹. The kon (CD16B-Fc^NA2 (human) [6]) was 75700 M⁻¹ s⁻¹, the koff (CD16B-Fc^SH (human) [7]) was 0.000528 s⁻¹ and the kon (CD16B-Fc^SH (human) [7]) was 77900 M⁻¹ s⁻¹. For the same substance, the koff [8] was 0.00038 s⁻¹, the kon [8] was 99400 M⁻¹ s⁻¹ and the Kd (CD16B-Fc^NA1 (human) [9]) was 8.91 nM. It also gave a Kd [10] of 5.17 nM, a Kd (CD16B-Fc^NA2 (human) [11]) of 9.63 nM and a Kd (CD16B-Fc^SH (human) [12]) of 11.4 nM. It also gave a Kd [13] of 3.82 nM.
